Source: the supplement of paper PMC7125110
± gives the standard error. For some assays here: Variants at the floor of the assay were thinned out.

B1: glmS ribozyme (parent)
chain: AUAAAAGCGCCAGAACUACAGAAAUGUAGUUGACGAGGAGGAGGUUUAUCGAAUUUUCGGCGGAUGCCUCCAAA

Assays:
Conditions in all cases: with glucosamine-6-phosphate
glucosamine-6-phosphate [1] = variants of: B1; test: kcat; higher = faster cleavage; RNA array
Procedure, shortened: (§1)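 Over ~14 h at 37 °C, tiles were imaged as glucosamine-6-phosphate (40 μM to 10 mM) in HEPES/KCl/Mg(OAc)2 buffer flowed across sequenced MiSeq chips. The chips carried barcoded ribozyme variants transcribed in situ by E. coli RNA polymerase and tracked with a hybridised Cy3 probe. After normalisation to baseline and to non-cleaving reference variants, one- or two-exponential decay fits of per-tile medians gave kobs. kcat and KM followed from weighted Michaelis–Menten fits across concentrations.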

glucosamine-6-phosphate [2] = variants of: B1; test: KM; higher = weaker cofactor use; RNA array
Procedure, shortened: as §1

glucosamine-6-phosphate [3] = variants of: B1; test: self-cleavage kobs at 10000 uM GlcN6P; higher = faster cleavage; RNA array
Procedure, shortened: as §1

glucosamine-6-phosphate [4] = variants of: B1; test: self-cleavage kobs at 640 uM GlcN6P; higher = faster cleavage; RNA array
Procedure, shortened: as §1

glucosamine-6-phosphate [5] = variants of: B1; test: self-cleavage kobs at 2500 uM GlcN6P; higher = faster cleavage; RNA array
Procedure, shortened: as §1

glucosamine-6-phosphate [6] = variants of: B1; test: self-cleavage kobs at 40 uM GlcN6P; higher = faster cleavage; RNA array
Procedure, shortened: as §1

glucosamine-6-phosphate [7] = variants of: B1; test: self-cleavage kobs at 160 uM GlcN6P; higher = faster cleavage; RNA array
Procedure, shortened: as §1

Row | Variant | kcat (glucosamine-6-phosphate [1]) [s⁻¹] | KM (glucosamine-6-phosphate [2]) [µM] | self-cleavage kobs at 10000 uM GlcN6P (glucosamine-6-phosphate [3]) [s⁻¹] | self-cleavage kobs at 640 uM GlcN6P (glucosamine-6-phosphate [4]) [s⁻¹] | self-cleavage kobs at 2500 uM GlcN6P (glucosamine-6-phosphate [5]) [s⁻¹] | self-cleavage kobs at 40 uM GlcN6P (glucosamine-6-phosphate [6]) [s⁻¹] | self-cleavage kobs at 160 uM GlcN6P (glucosamine-6-phosphate [7]) [s⁻¹]
1 | G29C A33U | 2.55e-05 ± 6.2e-07 | 979 ± 140 | 2.33e-05 ± 1.2e-05 | – | – | – | –
2 | A33C G66A | 0.000291 ± 4.1e-05 | 2470 ± 580 | 0.000257 ± 4.6e-05 | 6.35e-05 ± 9.2e-06 | 0.00013 ± 2.3e-05 | – | –
3 | C11A C50U A64U | < 1e-05 | – | – | – | – | – | –
4 | U30A A39U | 0.00467 ± 0.0022 | – | 0.00745 ± 0.0016 | 0.00188 ± 0.00036 | 0.0022 ± 0.00046 | 0.000191 ± 5.4e-05 | 0.000401 ± 8.1e-05
5 | C16A C50A U69C | 3.42e-05 ± 1.5e-05 | – | – | – | 5.24e-05 ± 2.3e-05 | – | –
6 | A12G C58G | 0.000117 ± 1.9e-05 | – | 9.48e-05 ± 9.8e-06 | – | 7.99e-05 ± 1.2e-05 | – | –
7 | A14U A42U | 3.26e-05 ± 1.5e-06 | 884 ± 270 | 3.02e-05 ± 7.7e-06 | – | – | – | –
8 | G38A U55C | < 1e-05 | 37.7 ± 15 | – | – | – | – | –
9 | U47C A64G | 0.00525 ± 0.0013 | 1890 ± 650 | 0.00499 ± 0.00066 | 0.00115 ± 0.00027 | 0.0019 ± 0.00068 | 0.000131 ± 1.7e-05 | 0.000324 ± 9e-05
10 | U54A | 0.0591 ± 0.015 | 2360 ± 680 | 0.0497 ± 0.0024 | 0.0124 ± 0.00049 | 0.03 ± 0.0018 | 0.00106 ± 2e-05 | 0.00285 ± 0.00013
11 | U55A C70A | 0.00013 ± 1.3e-05 | 116 ± 52 | 0.000114 ± 1.4e-05 | 0.00011 ± 2.1e-05 | 0.000155 ± 2.2e-05 | 2.79e-05 ± 1.1e-05 | 8.57e-05 ± 2e-05
12 | A12U C67U | 0.0497 ± 0.018 | 2250 ± 970 | 0.0378 ± 0.0074 | 0.0142 ± 0.0033 | 0.0421 ± 0.012 | 0.000918 ± 0.0001 | –
13 | G63A C68A | 2.09e-05 ± 4.7e-06 | – | – | – | – | – | –
14 | G37U U57G | < 1e-05 | – | – | – | < 1e-05 | – | –
15 | G7U A36C A48U | < 1e-05 | – | – | < 1e-05 | – | – | –
16 | U31C C50U | < 1e-05 | – | – | – | – | – | –
17 | U31C C68G | 1.29e-05 ± 2.8e-06 | – | – | – | – | – | –
18 | G13U A36C | < 1e-05 | – | < 1e-05 | – | – | – | –
19 | G43U U65G | 4.38e-05 ± 9.2e-07 | 2380 ± 190 | 3.53e-05 ± 1.1e-05 | – | – | < 1e-05 | –
20 | G43A U45G C58G | 2.82e-05 ± 8e-07 | 199 ± 61 | – | – | – | – | –
21 | A33U C67U | 4.33e-05 ± 9.7e-06 | – | 4.16e-05 ± 7.3e-06 | 3.39e-05 ± 1.5e-05 | 2.49e-05 ± 6.9e-06 | – | –

Row | Variant | kcat (glucosamine-6-phosphate [1]) [s⁻¹] | KM (glucosamine-6-phosphate [2]) [µM] | self-cleavage kobs at 10000 uM GlcN6P (glucosamine-6-phosphate [3]) [s⁻¹] | self-cleavage kobs at 640 uM GlcN6P (glucosamine-6-phosphate [4]) [s⁻¹] | self-cleavage kobs at 2500 uM GlcN6P (glucosamine-6-phosphate [5]) [s⁻¹] | self-cleavage kobs at 40 uM GlcN6P (glucosamine-6-phosphate [6]) [s⁻¹] | self-cleavage kobs at 160 uM GlcN6P (glucosamine-6-phosphate [7]) [s⁻¹]
22 | G32A C68A | 1.56e-05 ± 4.4e-06 | – | – | – | – | – | –
23 | A48G C71A | 2.26e-05 ± 4.7e-06 | – | – | – | 2.93e-05 ± 1.3e-05 | – | –
24 | A14U G62A C70G | 5.52e-05 ± 1.4e-05 | – | – | 5.47e-05 ± 2e-05 | – | – | –
25 | C16A C70A | 3.47e-05 ± 1.4e-05 | – | – | 3.14e-05 ± 1.6e-05 | 6.59e-05 ± 2.4e-05 | – | –
26 | A39G U57C | 0.000566 ± 0.0002 | – | 0.000351 ± 6.4e-05 | 5.87e-05 ± 1.5e-05 | 0.00013 ± 2.3e-05 | < 1e-05 | –
27 | A42G C68A | 1.2e-05 ± 4.3e-06 | – | – | – | – | – | –
28 | U30A U55C G66C | 8.18e-05 ± 2.7e-05 | – | 6.89e-05 ± 1.1e-05 | – | 0.000101 ± 2e-05 | – | –
29 | U30C U69C | 0.00014 ± 1.4e-05 | 591 ± 210 | 0.000122 ± 1.4e-05 | 6.58e-05 ± 1e-05 | 0.000129 ± 1.3e-05 | – | 3.85e-05 ± 1.7e-05
30 | U46G U49G | 9.12e-05 ± 1.4e-05 | – | 7.66e-05 ± 1.7e-05 | – | 8.04e-05 ± 1.8e-05 | < 1e-05 | –
31 | C16A U45C | 9.45e-05 ± 2.3e-05 | – | 7.72e-05 ± 1.4e-05 | – | 8.36e-05 ± 2.3e-05 | – | –
32 | U31G A48U U55G A64G | 0.000666 ± 0.00016 | 3200 ± 1500 | 0.000484 ± 9.1e-05 | 0.0001 ± 2.9e-05 | 0.000437 ± 0.00013 | – | –
33 | U30C C68U | 0.000128 ± 8.6e-06 | 1210 ± 270 | 0.000111 ± 8.5e-06 | 4.07e-05 ± 6.8e-06 | 9.82e-05 ± 1.1e-05 | – | –
34 | A14G G37C A48G | 1.62e-05 ± 5.8e-06 | – | – | – | – | – | –
35 | A15G C16U C68G | 5.74e-05 ± 2.6e-05 | – | – | 8.06e-05 ± 1.8e-05 | 8.91e-05 ± 3e-05 | – | –
36 | C50U C71U | 5.37e-05 ± 8.4e-06 | – | 4.57e-05 ± 1e-05 | – | 4.54e-05 ± 9.2e-06 | – | –
37 | A33G C68A | 1.39e-05 ± 1.5e-06 | – | – | – | – | – | –
38 | C11A A15G C16A G29U | 0.000222 ± 4.3e-05 | 2210 ± 1100 | 0.000192 ± 3.5e-05 | 6.91e-05 ± 2.4e-05 | 0.000102 ± 2.4e-05 | – | –
39 | A14G G32C A53U | 0.000218 ± 7.2e-05 | – | 0.000144 ± 2.8e-05 | 4.08e-05 ± 2e-05 | 6.01e-05 ± 1.8e-05 | – | –
40 | G38C C61A | < 1e-05 | – | – | – | < 1e-05 | – | < 1e-05
41 | U31A G40A | 0.00231 ± 0.00021 | 1250 ± 170 | 0.00201 ± 0.00033 | 0.000717 ± 0.00016 | 0.00206 ± 0.00066 | 7.32e-05 ± 1.2e-05 | 0.000266 ± 0.00011
42 | A15C G32C | 0.000182 ± 5.4e-06 | 3300 ± 240 | 0.000138 ± 1.7e-05 | 3.08e-05 ± 1e-05 | 7.51e-05 ± 2e-05 | – | –
